Results: patent publication US20250144178A1, “PHARMACEUTICAL COMPOSITION FOR CANCER TREATMENT COMPRISING FUSION PROTEIN INCLUDING IL-12 AND ANTI-FAP ANTIBODY AND ANTICANCER AGENT” (KANAPH THERAPEUTICS INC., priority 2022, published 2025)

T1: recombinant mouse FAP (Mus musculus, UniProt P97321)
T1 sequence (P97321 1-761): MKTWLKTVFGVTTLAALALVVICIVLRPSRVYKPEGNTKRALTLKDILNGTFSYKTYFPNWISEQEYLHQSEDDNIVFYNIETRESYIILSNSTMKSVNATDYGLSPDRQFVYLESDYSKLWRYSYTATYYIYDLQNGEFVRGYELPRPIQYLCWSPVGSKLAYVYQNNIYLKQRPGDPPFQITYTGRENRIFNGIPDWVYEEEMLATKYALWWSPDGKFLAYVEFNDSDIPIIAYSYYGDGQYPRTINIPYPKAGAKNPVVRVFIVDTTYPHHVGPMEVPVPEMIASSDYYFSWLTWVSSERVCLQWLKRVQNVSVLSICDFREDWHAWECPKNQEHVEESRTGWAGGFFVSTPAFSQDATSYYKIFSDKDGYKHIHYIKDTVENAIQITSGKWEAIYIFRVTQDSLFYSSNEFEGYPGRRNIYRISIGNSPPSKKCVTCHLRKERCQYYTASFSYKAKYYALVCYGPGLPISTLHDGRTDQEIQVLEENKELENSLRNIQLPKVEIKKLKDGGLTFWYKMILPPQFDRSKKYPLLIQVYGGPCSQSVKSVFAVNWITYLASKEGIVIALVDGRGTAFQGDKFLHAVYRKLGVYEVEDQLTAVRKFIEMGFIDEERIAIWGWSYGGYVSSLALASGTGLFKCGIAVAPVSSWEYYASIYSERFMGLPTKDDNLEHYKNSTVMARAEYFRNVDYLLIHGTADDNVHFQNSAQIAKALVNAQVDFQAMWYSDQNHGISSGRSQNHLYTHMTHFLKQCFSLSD

B1: T1.02m: K&H bispecific: anti-mu FAP/mu IL-12 mut1, mu IgG2a DANG (seq18, seq19, seq21) (antibody)
heavy: QVQLQQSGAELARPGASVNLSCKASGYTFTNNGINWLKQRTGQGLEWIGEIYPRSTNTLYNEKFKGKATLTADRSSNTAYMELRSLTSEDSAVYFCARTLTAPFAFWGQGTLVTVSAAKTTAPSVYPLAPVCGDTTGSSVTLGCLVKGYFPEPVTLTWNSGSLSSGVHTFPAVLQSDLYTLSSSVTVTSSTWPSQSITCNVAHPASSTKVDKKIEPRGPTIKPCPPCKCPAPNLLGGPSVFIFPPKIKDVLMISLSPIVTCVVVAVSEDDPDVQISWFVNNVEVHTAQTQTHREDYGSTLRVVSALPIQHQDWMSGKEFKCKVNNKDLPAPIERTISKPKGSVRAPQVYVLPPPEEEMTKKQVTLWCMVTDFMPEDIYVEWTNNGKTELNYKNTEPVLDSDGSYFMYSKLRVEKKNWVERNSYSCSVVHEGLHNHHTTKSFSRTPGK
light: QIVLTQSPAIMSASPGEKVTMTCSASSGVNFMHWYQQKSGTSPKRWIFDTSKLASGVPARFSGSGSGTSYSLTISSMEAEDAATYYCQQWSFNPPTFGGGTKLEIKRADAAPTVSIFPPSSEQLTSGGASVVCFLNNFYPKDINVKWKIDGSERQNGVLNSWTDQDSKDSTYSMSSTLTLTKDEYERHNSYTCEATHKTSTSPIVKSFNRNEC
chain: MWELEKDVYVVEVDWTPDAPGETVNLTCDTPEEDDITWTSDQRHGVIGSGKTLTITVKEFLDAGQYTCHKGGETLSHSHLLLHKKENGIWSTEILKNFKNKTFLKCEAPNYSGRFTCSWLVQRNMDLKFNIKSSSSSPDSRAVTCGMASLSAEKVTLDQRDYEKYSVSCQEDVTCPTAEETLPIELALEARQQNKYENYSTSFFIRDIIKPDPPKNLQMKPLKNSQVEVSWEYPDSWSTPHSYFSLKFFVRIQRAKEKMAETEEGCNQKGAFLVEKTSTEVQCKGGNVCVQAQDRYYNSSCSKWACVPCRVRSGGGGSGGGGSGGGGSRVIPVSGPARCLSQSRNLLKTTDDMVKTAREKLKHYSCTAEDIDHEDITRDQTSTLKTCLPLELHKNESCLATRETSSTTRGSCLPPQKTSLMMTLCLGSIYEDLKMYQTEFQAINAALQNHNHQQIILDKGMLVAIDELMQSLNHNGETLRQKPPVGEADPYRVKMKLCILLHAFSTRVVTINRVMGYLSSAGGGGSGGGGSEPRGPTIKPCPPCKCPAPNLLGGPSVFIFPPKIKDVLMISLSPIVTCVVVAVSEDDPDVQISWFVNNVEVHTAQTQTHREDYGSTLRVVSALPIQHQDWMSGKEFKCKVNNKDLPAPIERTISKPKGSVRAPQVYVLPPPEEEMTKKQVTLSCAVTDFMPEDIYVEWTNNGKTELNYKNTEPVLDSDGSYFMVSKLRVEKKNWVERNSYSCSVVHEGLHNHHTTKSFSRTPGK
B2: T1.12m: K&H: anti-mu FAP/null, mu IgG2a DANG (seq18, seq19, seq29); used as control (antibody)
heavy: QVQLQQSGAELARPGASVNLSCKASGYTFTNNGINWLKQRTGQGLEWIGEIYPRSTNTLYNEKFKGKATLTADRSSNTAYMELRSLTSEDSAVYFCARTLTAPFAFWGQGTLVTVSAAKTTAPSVYPLAPVCGDTTGSSVTLGCLVKGYFPEPVTLTWNSGSLSSGVHTFPAVLQSDLYTLSSSVTVTSSTWPSQSITCNVAHPASSTKVDKKIEPRGPTIKPCPPCKCPAPNLLGGPSVFIFPPKIKDVLMISLSPIVTCVVVAVSEDDPDVQISWFVNNVEVHTAQTQTHREDYGSTLRVVSALPIQHQDWMSGKEFKCKVNNKDLPAPIERTISKPKGSVRAPQVYVLPPPEEEMTKKQVTLWCMVTDFMPEDIYVEWTNNGKTELNYKNTEPVLDSDGSYFMYSKLRVEKKNWVERNSYSCSVVHEGLHNHHTTKSFSRTPGK
light: QIVLTQSPAIMSASPGEKVTMTCSASSGVNFMHWYQQKSGTSPKRWIFDTSKLASGVPARFSGSGSGTSYSLTISSMEAEDAATYYCQQWSFNPPTFGGGTKLEIKRADAAPTVSIFPPSSEQLTSGGASVVCFLNNFYPKDINVKWKIDGSERQNGVLNSWTDQDSKDSTYSMSSTLTLTKDEYERHNSYTCEATHKTSTSPIVKSFNRNEC
chain: EPRGPTIKPCPPCKCPAPNLLGGPSVFIFPPKIKDVLMISLSPIVTCVVVAVSEDDPDVQISWFVNNVEVHTAQTQTHREDYGSTLRVVSALPIQHQDWMSGKEFKCKVNNKDLPAPIERTISKPKGSVRAPQVYVLPPPEEEMTKKQVTLSCAVTDFMPEDIYVEWTNNGKTELNYKNTEPVLDSDGSYFMVSKLRVEKKNWVERNSYSCSVVHEGLHNHHTTKSFSRTPGK

Assays:
[1] = test system: FAP-overexpressing CT26 cells; test: Tumor growth inhibition, FAP-overexpressing CT26 model, repeated i.p. dosing; format: in vivo, BALB/c mice; conditions: 18 days after administration, control 50 μg T1.24m
Procedure: In order to prepare an mouse FAP-expressing tumor animal model, FAP overexpression was induced in CT26, a mouse colorectal cancer cell line. Specifically, the FAP-overexpressing CT26 cells in culture were resuspended in Hanks' Balanced salt solution (HBSS, Gibco), and then each 100 μl of 1×10^6 tumor cells per each mouse was transplanted into the subcutaneous region of the left dorsal side of 6-week-old BALB/c mice using a 1 cc syringe (25G) to obtain a mouse FAP-expressing colorectal cancer animal model. The tumor size was measured using a digital vernier caliper by measuring the short axis and long axis of the tumor, and the tumor size was measured twice a week using the calculation formula of (short axis, mm) 2×(long axis, mm)×0.5.
(§1) Next, for drug efficacy evaluation, when the size of the tumor reached 100 mm^3, the mice were randomly divided into groups. Each experimental group consisted of 8 animals, and as a control, each 100 μl of 50 μg of T1.24m was intraperitoneally administered four times at an interval of 3 days. In the test group, each 100 μl of 10 μg and 100 μg of T1.01m, and 2 μg, 10 μg and 100 μg of T1.02m, respectively, were intraperitoneally administered four times at an interval of 3 days to evaluate the tumor growth inhibitory ability.

recombinant mouse FAP = biological target: T1, recombinant mouse FAP; test: Surface plasmon resonance binding to recombinant mouse FAP; conditions: SPR, 2 μg/ml protein, FIGS. 13 and 14
Procedure: The surface of the CM5 chip was activated with a 1:1 mixture of […] (N-hydroxysuccinimide) and […] (1-Ethyl-3-(3-dimethylaminopropyl) carbodiimide), and 25 μg/ml of anti-mouse IgG (Fc) antibody was immobilized for 400 seconds at a rate of 10 μl/min. The remaining active ester groups were blocked with 1 M ethanolamine. T1.01m, T1.02m and T1.03m were diluted to 2 μg/ml and reacted on the CM5 chip immobilized with the anti-mouse IgG (Fc) antibody. The recombinant mouse FAP was diluted to 200 nM in 1×HBS-EP+buffer solution and diluted by serial dilution. The diluted recombinant mouse FAP was reacted at a rate of 30 μl/min. The association and dissociation times were 180 seconds and 400 seconds, respectively. After the dissociation, stabilization was performed for 60 seconds, and then a regeneration was performed for 30 seconds with a 10 mM glycine pH 1.5 solution at a rate of 30 μl/min.

[2] = test system: CT26 colorectal cancer with mouse FAP overexpressing NIH-3T3 cells; test: Tumor growth inhibition, CT26 co-injected with mouse FAP overexpressing NIH-3T3; format: in vivo, BALB/c mice; conditions: for tumor growth inhibitory ability compared to control: 14th day, control 50 μg T1.24m
Procedure: Specifically, the mouse FAP overexpressing NIH-3T3 cells and the CT26 cells in culture were resuspended in Hanks' Balanced salt solution (HBSS, Gibco) at a concentration of 1×10^6 cells/50 μl, respectively, and the cells were mixed in a 1:1 ratio, and then 100 μl per each mouse was transplanted into the subcutaneous region of the right flank of 6-week-old BALB/c mice using a 1 cc syringe (25G) to obtain an FAP-expressing fibroblast co-injection animal model. The tumor size was measured using a digital vernier caliper by measuring the short axis and long axis of the tumor, and the tumor size was measured twice a week using the calculation formula of (short axis, mm) 2×(long axis, mm)×0.5.
as §1, with “of 10” for “of 8”, “administered three” for “administered four”, “and 50 μg of T1.02m and 50” for “and 100”, “T1.01m,” for “T1.01m, and 2 μg, 10 μg and 100 μg of T1.02m,”

HEK-Blue IL-12 cells = test: Signaling ability in IL-12 recognizing cells (STAT4 inducible SEAP reporter); format: cell-based, human; conditions: serial dilution from 4 nM, 24 hours, FIG. 18
Procedure: The HEK-Blue IL-12 cell line transformed with the IL-12 receptor gene and the STAT4 inducible SEAP reporter gene into HEK293 cells, which are human embryonic kidney fibroblasts, was obtained from Invivogen (San Diego, USA). The HEK-Blue IL-12 cells were maintained in DMEM (GIBCO) containing 10% FBS (GIBCO), 100 μg/ml Normocin and 1×HEK-Blue selection.
Specifically, the HEK-Blue IL-12 cell line, which is an IL-12 recognizing cell, was diluted to 2.8×10^5 cells/ml and dispensed at 180 μl/well. Recombinant human IL-12, T1.01m, T1.02m, T1.03m and T1.12m were suspended at 4 nM and diluted by serial dilution. HEK-Blue IL-12 cells were treated with the diluted recombinant human IL-12, T1.01m, T1.02m, T1.03m and T1.12m. After 24 hours of treatment, the cell supernatant was collected and mixed with QUANTI-Blue Solution (Invivogen) in a 96-well plate. The reporter expression level was measured at 620 nm using a spectrophotometer (Thermo Fisher).

[3] = test system: FAP-overexpressing mouse colorectal cancer CT26; test: Tumor growth inhibition by IL-12 mutation, FAP-overexpressing CT26, single i.v. dose; format: in vivo, BALB/c mice; conditions: 10 μg i.v. once, 15 days after administration, control PBS, FIG. 28
Procedure: In order to evaluate the change in IL-12 activity according to the presence and extent of amino acid mutation, FAP-overexpressing mouse colorectal cancer CT26 was prepared by resuspending in PBS at a concentration of 5×10^5 cells/100 μl, and the tumor growth inhibitory ability was evaluated in a tumor animal model prepared by transplantation of the cells into 5-week-old female BALB/c mice.
Specifically, when the size of the tumor in the model reached 100 mm^3, the mice were randomly divided into groups. 100 μl of phosphate buffered saline (PBS) was administered once via tail vein injection of the control, and each of T1.01m, T1.02m and T1.03m was intravenously administered once at a dose of 10 μg.

Molecule | tumor growth inhibitory ability compared to control ([1]; 2 μg i.p. four times at an interval of 3 days) [%] | tumor growth inhibitory ability compared to control ([1]; 10 μg i.p. four times at an interval of 3 days) [%] | tumor growth inhibitory ability compared to control ([1]; 100 μg i.p. four times at an interval of 3 days) [%] | Binding to recombinant mouse FAP (recombinant mouse FAP) | tumor growth inhibitory ability compared to control ([2]; 10 μg i.p. three times at an interval of 3 days) [%] | tumor growth inhibitory ability compared to control ([2]; 50 μg i.p. three times at an interval of 3 days) [%] | complete response ([2]; 24th day after administration, FIG. 24) | IL-12 recognition / STAT4 reporter gene expression (620 nm absorbance) (HEK-Blue IL-12 cells) | tumor growth inhibitory ability compared to the control [3]
B1 | 80.1 | 90.5 | 89.8 | may bind to recombinant mouse FAP to specifically target FAP | 93.2 | 92.7 | subjects in complete response were observed | IL-12 was recognized, and STAT4 expressed a reporter gene by inducing phosphorylation | excellent tumor growth inhibitory ability
B2 | – | – | – | – | – | – | – | did not recognize IL-12 | –
